Data as given in US20130216547A1 (Regeneron, published 2013).

T1: mouse big-ET-1 (mouse)
T1 peptide: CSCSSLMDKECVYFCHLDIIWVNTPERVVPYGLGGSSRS

T2: human big-endothelin-1 (big-ET-1) (human)
T2 peptide: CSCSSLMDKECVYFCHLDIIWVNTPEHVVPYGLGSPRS

T3: small-ET-1 (endothelin-1) (human)
T3 construct: 21 amino acid peptide, same for mouse and human; also called human small-ET-1; EDN-1
T3 peptide: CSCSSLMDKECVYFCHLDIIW

B1: H4H6340P (antibody, V domains shown)
VH: EVQLVESGGGLVQPGGSLRLSCAASGFTFSSSAMSWVRQAPGKGLEWVSAISGSGVGTYYAASVKGRFTISRDNSKNILYLQMNDLRAEDTALYYCPKARTGTHAFDIWGQGTMVTVSS
VL: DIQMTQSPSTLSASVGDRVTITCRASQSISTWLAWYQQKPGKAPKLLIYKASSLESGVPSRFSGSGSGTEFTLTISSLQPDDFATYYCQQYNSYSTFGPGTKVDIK
notes: Human IgG4 Fc (prefix H4H)
B2: H4H6347P (antibody, V domains shown)
VH: EVQLVESGGGLVQPGGSLRLSCAASGFTFSNYAMSWVRQAPGKGLEWVSAISGSGVGTYYAASVKGRFTISRDNSKNTLYLQMNSLRAEDTAVYYCPKARTGTHAFDIWGQGTMVTVSS
VL: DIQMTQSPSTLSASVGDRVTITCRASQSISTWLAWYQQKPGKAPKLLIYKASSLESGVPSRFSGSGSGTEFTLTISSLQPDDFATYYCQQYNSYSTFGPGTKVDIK
notes: Human IgG4 Fc (prefix H4H)
B3: H2M6486N (antibody, V domains shown)
VH: EVQLVESGGGLVKPGGSLRLSCAASGFTFSSYNMNWVRQAPGKGLEWVSSISSSSSYIYYADSVKGRFTISRDNAKNSLYLQMNSLRAEDTAVYYCARDNWNYSFDYWGQGTLVTVSS
VL: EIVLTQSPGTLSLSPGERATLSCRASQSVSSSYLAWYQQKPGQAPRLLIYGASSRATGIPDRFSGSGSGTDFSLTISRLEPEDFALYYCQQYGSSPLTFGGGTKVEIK
notes: Hybridoma antibody, human variable domains, mouse IgG2 Fc (prefix H2M)
B4: H2M6490N (antibody, V domains shown)
VH: EVQLLESGGGLVQPGGSLRLSCAASGFTFSSYAMTWVRQAPGKGLECISAISGSGYSTYYADSMKGRFSISRDNSKNTLYLQMNRLRAEDTAVYYCTKGGRILEWLLPFDFWGQGTLVTVSS
VL: DVVMTQSPLSLPVTLGQPASISCRSSQSLVYSDGNTYLIWFQQRPGQSPRRLIYKVSNRDSGVPDRFSGSGSGTDFTLIISRVEAEDVGLYYCMQGTHWPPTFGGGTKVEIK
notes: as for B3
B5: H4H6353P (antibody, V domains shown)
VH: EVQLVESGGGLVKPGGSLRLSCAASGFSFNYAWMSWVRQAPGKGLEWIGRIKSKINGGTTDYTAPVKGRFTISRDDSKNTLYLQMNSLKTEDTAVYYCRGDEDFWGQGTLVTVSS
VL: DVVMTQSPLSLPVTLGQPASISCRSSQSLVYSDGFTYLNWFRQRPGQSPRRLIYKVSNRDSGVPDRFSGSGSGTDFTLRISRVEAEDVGIYYCMQGTHWPYTFGQGTKLEIK
notes: Human IgG4 Fc (prefix H4H)
B6: H4H6334P (antibody, V domains shown)
VH: EVQLVESGGGLVKPGGSLRLSCAVSGFTFSIDWMIWVRQAPGTGLEWVGRIKRKTDGGTTDYAAPVKGRFTISRDDSKNTLYLQMNSLKTEDTAIYYCATGGFERVGQGTLVTVSS
VL: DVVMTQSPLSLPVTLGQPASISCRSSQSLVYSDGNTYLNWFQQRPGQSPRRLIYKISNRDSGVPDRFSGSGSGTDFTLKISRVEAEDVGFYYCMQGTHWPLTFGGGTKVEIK
notes: Human IgG4 Fc (prefix H4H)
B7: H4H6328P (antibody, V domains shown)
VH: QVQLVESGGGVVQPGRSLRLSCAASGFTFSSYGMHWVRQAPGKGLEWVAVIWYDGSDKYYADSVKGRFTISRDNSKNTLYLQMNSLRAEDTAVYYCARDGYGSRGNYFDYWGQGTLVTVSS
VL: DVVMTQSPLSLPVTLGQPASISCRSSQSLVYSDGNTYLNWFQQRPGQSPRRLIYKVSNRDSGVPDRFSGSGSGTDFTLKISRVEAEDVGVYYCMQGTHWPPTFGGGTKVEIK
notes: Human IgG4 Fc (prefix H4H)
B8: H2M6495N (antibody, V domains shown)
VH: QVQLVESGGGVVQPGRSLRLSCAASGFTFRSYGMHWVRQAPGKGLEWVAVIWYDGSDKYYADSVKGRFTISRDNSKNTLYLQMNSLRAEDTAVYFCAKDEYKTRGGYFDYWGQGTLVTVSS
VL: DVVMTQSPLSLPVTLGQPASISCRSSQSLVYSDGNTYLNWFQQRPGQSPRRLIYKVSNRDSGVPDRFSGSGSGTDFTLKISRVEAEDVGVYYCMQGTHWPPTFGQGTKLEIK
notes: as for B3
B9: H4H6495N (antibody, V domains shown)
VH: QVQLVESGGGVVQPGRSLRLSCAASGFTFRSYGMHWVRQAPGKGLEWVAVIWYDGSDKYYADSVKGRFTISRDNSKNTLYLQMNSLRAEDTAVYFCAKDEYKTRGGYFDYWGQGTLVTVSS
VL: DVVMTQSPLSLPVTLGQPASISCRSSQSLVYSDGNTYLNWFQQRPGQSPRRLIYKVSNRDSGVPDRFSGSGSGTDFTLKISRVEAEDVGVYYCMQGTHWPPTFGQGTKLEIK
notes: Human IgG4 Fc version of 6495N; also called 6495N (human IgG4 format)
B10: H1M6492N (antibody, V domains shown)
VH: EVQLVESGGGLVKPGGSLRVSCVASGFTFSNAWMTWVRQTPGKGLECVGRIKSRTDGGTVDYVAPVKGRFTISRDDSKNTLYLQMNSLKAEDTAVYYCRADLDYWGQGTLVTVSS
VL: DVVMTQSPLSLPVSLGQPASISCRSSQSLVHSDGITYLNWFQQRPGQSPRRLIYKISNRDSGVPDRFSGSGSGTDFTLKFSRVEAEDVGVYFCMQGTHWPYTFGQGTKLEIK
notes: Hybridoma antibody, human variable domains, mouse constant domains; prefix H1M marks the Fc region (isotype not spelled out)
B11: H1M6494N (antibody, V domains shown)
VH: EVQLVESGGGLVKPGGSLRVSCVASGFTFSNAWMTWVRQTPGKGLECVGRIKSRTDGGTVDYVAPVKGRFTISRDDSKNTLYLQMNSLKAEDTAVYYCRADLDYWGQGTLVTVSS
VL: DVVMTQSPLSLPVSLGQPASISCRSSQSLVHSDGITYLNWFQQRPGQSPRRLIYKISNRDSGVPDRFSGSGSGTDFTLKFSRVEAEDVGVYFCMQGTHWPYTFGQGTKLEIK
notes: as for B10

Columns and labels:
mouse big-ET-1 [1] = target: T1, mouse big-ET-1; assay: cell-based or functional assay
[2] = target: T2, human big-endothelin-1 (big-ET-1); assay: cell-based or functional assay
[3] = target: T3, small-ET-1 (endothelin-1); assay: SPR (Biacore T200), 37 C, mAb capture, peptide analyte
Description: (§1) Measurements were conducted on a T200 Biacore instrument (Biacore Life Sciences division of GE Healthcare, Piscataway, N.J.). […] Peptide binding was monitored for 3 min while dissociation of mAb-bound peptide was monitored for 4 min in HBST running buffer (0.01 M HEPES pH 7.4, 0.15 M NaCl, 3 mM EDTA, 0.005% v/v Surfactant P20). Kinetic association (kₐ) and dissociation (kd) rate constants were determined by processing and fitting the data to a 1:1 binding model using Scrubber 2.0 curve fitting software.

mouse big-ET-1 [4] = target: T1, mouse big-ET-1; assay: as above
Description: as §1

[5] = target: T2, human big-endothelin-1 (big-ET-1); assay: as above
Description: as §1

[6] = target: T2, human big-endothelin-1 (big-ET-1); assay: cell-based or functional assay
[7] = target: T2, human big-endothelin-1 (big-ET-1); assay: SPR (Biacore T200), 37 C, mAb capture, peptide analyte
Description: as §1

[8] = target: T2, human big-endothelin-1 (big-ET-1); assay: SPR (Biacore T200), 37 C, mAb capture, peptide analyte; hybridoma mAb (H2M, mouse Fc), captured on rabbit anti-mouse surface; Table 2
Description: as §1

[9] = target: T2, human big-endothelin-1 (big-ET-1); assay: SPR (Biacore T200), 37 C, mAb capture, peptide analyte; human IgG4 format (H4H), captured on mouse anti-human Fc surface; Table 3
Description: as §1

| Binder | Blocking IC50(M), 20 nM mBig-ET-1 + 5 nM mECE1; 293/ETaR/NFAT-Luc luciferase (mouse big-ET-1 [1]) [M] | Blocking IC50(M), 10 nM hBig-ET-1 + 3 nM hECE1; 293/ETaR/NFAT-Luc luciferase [2] [M] | binding result [3] | Kd (mouse big-ET-1 [4]) [nM] | T½ (mouse big-ET-1 [4]) [min] | koff (mouse big-ET-1 [4]) [s⁻¹] | kon (mouse big-ET-1 [4]) [M⁻¹ s⁻¹] | Kd [5] [nM] | T½ [5] [min] | koff [5] [s⁻¹] | kon [5] [M⁻¹ s⁻¹] | Blocking IC50(M), 10 nM hBig-ET-1 + 3 nM hECE1 [Trial 1]; 293/ETaR/NFAT-Luc luciferase [6] [M] | Kd [7] [nM] | Kd [8] [nM] | Kd [9] [nM] |
| --- | --- | --- | --- | --- | --- | --- | --- | --- | --- | --- | --- | --- | --- | --- | --- |
| B1 | 1.5e-09 | 2.1e-09 | no binding | 47 | 0.2 | 0.0603 | 1.3e+06 | 11 | 0.5 | 0.0249 | 2.3e+06 |  |  |  |  |
| B2 | 1e-09 | 1.5e-09 | no binding | 13 | 0.3 | 0.0414 | 3.1e+06 | 13.2 | 0.5 | 0.0239 | 1.81e+06 |  |  |  |  |
| B3 |  |  | no binding | 160 | 0.1 | 0.135 | 830000 | 239 | 0.1 | 0.0898 | 380000 | 7.6e-09 |  |  |  |
| B4 |  |  | no binding |  |  |  |  | 19.1 | 3 | 0.00399 | 209000 | 1.9e-09 |  |  |  |
| B5 | > 1e-07 | 1.8e-09 | no binding | 800 | 5 | 0.00236 | 2900 | 1.02 | 10 | 0.00116 | 1.14e+06 |  |  |  |  |
| B6 | > 1e-07 | 6.8e-10 |  | 58 | 25 | 0.000456 | 7900 | 0.043 | 133 | 8.68e-05 | 2.02e+06 |  | < 0.05 |  |  |
| B7 | > 1e-07 | > 1e-07 | no binding |  |  |  |  | ≤ 0.00634 | 11600 | ≤ 1e-06 | 158000 |  | < 0.05 |  |  |
| B8 |  |  | no binding |  |  |  |  |  | 11600 | ≤ 1e-06 | 117000 | 4.3e-09 | < 0.05 | ≤ 0.00853 |  |
| B9 |  | 1.33e-08 |  |  |  |  |  |  | 0.3 | 0.0399 | 606000 |  |  |  | 65.9 |
| B10 |  |  | no binding |  |  |  |  | 6.46 | 7 | 0.0016 | 248000 | 1.5e-09 |  |  |  |
| B11 |  |  | no binding |  |  |  |  | 7.07 | 7 | 0.00169 | 239000 | 1.5e-09 |  |  |  |
